Results published in US20040229289A1, “Antigen binding peptides (abtides) from peptide libraries” (Cytogen Corporation, priority 1994, published 2004).
Where no end group is shown, it is not given here.

B1: MP-1 (peptide)
peptide: GAPVWRGNPRWRGPGGFKWPGCGNGPMCNTFTPARGGSRNNGP
notes: eluted with excess PEM peptide; also called MPI; PEM abtide MP-1

Target: T1, mimetope peptide 7E11-9.5 (not fully specified)
T1 peptide: LYANPGMYSRLHSPA
Assay: phage panning of TSAR-9 library on plate-bound 7E11-9.5 peptide
Procedure: Next, the mimetope peptide was used to isolate abtides from a peptide library. Fifty to one hundred microliters of the solution of this peptide was used to coat the wells of a 96-well plate, the wells were blocked with 0.5% BSA in PBS, and the wells were used for screening. An aliquot of the TSAR-9 random phage library (containing approximately 3×10¹⁰ phage particles) was used as in the initial screening, and 4 rounds of screening were performed. After the first two rounds, the phage were amplified. Two more rounds of screening were then performed. By this procedure, phage from the TSAR-9 library that expressed peptides capable of binding to the 7E11-9.5 mimetope peptide were identified and isolated. The peptides containing the binding domains of these phage are abtides and were discovered to mimic the binding specificities of monoclonal antibody 7E11-C5. These abtides are termed “7E11-C5 abtides.”
RCSPIWGISYPFGLLSSNPGVCHSSDAETNIRNDILTT [7E11-C5 abtide clone 13]: binds.
GHSNYCFVSTLGMPIVGFPSINARGLIHYGGSDPRLAA [7E11-C5 abtide clone 16]: binds.

Target: T2, PEM peptide (human)
T2 peptide: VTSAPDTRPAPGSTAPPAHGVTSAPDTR
Assay: phage panning on PEM peptide, D38 library, stringent acid elution
Procedure: (§1) A peptide comprising this sequence was synthesized and used to isolate abtides from TSAR peptide libraries by methods analogous to those described above. In these experiments, the specific TSAR libraries used were R26, D38 and DC43. See FIGS. 10-12 for description of these libraries. Phage bound to PEM were eluted by either standard acid elution methods, stringent acid elution methods where phage were incubated with the PEM peptide for only 10 minutes prior to washing and elution, or were eluted using excess PEM peptide. Phage from each library were isolated that express peptides capable of binding to PEM.
YSATLWDQFGSRQVELWSNRHASSALPFASRASVLGSR (stringent acid elution) [V40]: binds.
STCIGAEGEWKSFHNFLQCRDATSTSSSTLDPTALRFG (stringent acid elution) [V27]: binds.
PLTSGSSSEYRNRDDCPVYKYATNCPRLNFSPSRYSPF (stringent acid elution) [V45]: binds.
GDAYGGIFSRPRQGLADSYIHASYTGKHFFRGPRPPTR (stringent acid elution) [V32]: binds.

Target: T2, PEM peptide
Assay: phage panning on PEM peptide, R26 library, acid eluted
Procedure: as §1
SLGLPWIDVFGRSSAEPWPFGRTNLPRS (acid eluted) [A39]: binds.
SSSIFDYAPFSWGSAGLSNSSINVFERS (acid eluted) [A54]: binds.
SFMDYFFHTPEPKPAGYPNAYTDPKHPA (acid eluted) [A15]: binds.
SVHGAFLDSFFPWAADGPHGRGRLTSF (acid eluted) [A16]: binds.

Target: T2, PEM peptide
Assay: phage panning on PEM peptide, DC43 library, eluted with excess PEM peptide
Procedure: as §1
B1: binds.
NTCWTDLFWHGLPGGDLPRDGCGLPSELTTHPSRERRDASEN [MA-13]: binds.
GSASSCFPNFTARGVTVGFFGCGSPAHPAAPRVLNPATDFPAP (eluted with excess PEM peptide) [MP-2]: binds.
VFRRTARSSRPIGATVFPWYGCGNSNDETLPHHDSPPSFFLGA (eluted with excess PEM peptide) [MP-22]: binds.

Target: T2, PEM peptide
Assay: phage panning on PEM peptide, R26 library, eluted with excess PEM peptide
Procedure: as §1
RAELVNWYEWFHVTAEAETPVINSHNMT (eluted with excess PEM peptide) [P6]: binds.
SRDDIFTGGPLVLFRGSKTSNHDVHSMR (eluted with excess PEM peptide) [P26]: binds.
ILGWPFLTGLGDSTVHPRGRKGTDPS (eluted with excess PEM peptide) [P24]: binds.
SIPSFSMWLNQLGSAALPSKGNSQDRSD (eluted with excess PEM peptide) [P49]: binds.

Target: T2, PEM peptide
Assay: phage ELISA on PEM
GTRVPPGFALRGGRDGLSWAGCGKAPISKTYTSARGRSRKKGS [E3]: no binding.
GAPLWQGDPADEVLGGSMIPGCGIGALSQTFTPTPGGSRKNVT [E37]: no binding.
AGRELRQDEGEGGAGADVARLREGPICSTFTPARGGSCPSGL [E43]: no binding.
CAPMWSGKPPWCVGGGVKFRGCGNRPDCNIITPRLVESRDKAL [E68]: binds.
QARVSMAISCRSGPSDLMHQGCGYGPRCNPDTTDSGGSHTNTP [E49]: no binding.
GEPVWCRHSGGRVQGGLDWLGCGDGPLRYTVTPARGGPSKHGP [E64]: binds.
STPGCSGYSGSGDPRCLTCTACGNGHTRKTLTPAHGRSTHKEP [E72]: no binding.
VSRAWSGKPRLMGSHGLNCPGCGKGHSGIMFIPDPAGSANTPP [E67]: binds.
RSAVSEGKPREIVPGGCMWPGCGNGRKSNTLTHGPEQFQEIEP [E15]: no binding.
GLSLVRGDSWGSGAGGWKRHGCGHGPMYNPQTPARGGSCTRNT [E66]: binds.
SSGVGNGKPRSWAPDALNGGCGNIQFANTITPDRGGSCNQTL [E24]: no binding.
GQPECRITSGCCGTDGNKWLGCGKVDMCNTLNPAVGCHGTNGS [E34]: no binding.
GSSVCGGQPSGRGFGGLPGPGCGNGPTSNTLTSARGGFPNKGL [E27]: no binding.
ADPVCSRKPDGGGLRGLRWPGCGKGPILYNVTAARGGSRNNGP [E70]: binds.
GDPECRGKPRGRWTGSLACTGCGNGPNSKICTRARGVSRNKGP [E60]: no binding.

Target: T2, PEM peptide
Assay: phage panning on PEM peptide, D38 library, acid eluted
Procedure: as §1
VQLDDTSPRASGQETSQSEYDARPLLSKFAIPRPWSR (acid eluted) [V21]: binds.
LSDAWGNFTTSYRDSAGFPSHAMTTSQGGKRNHASRFP (acid eluted) [V23]: binds.
DQIGSRPQTTSRSISGSWWENAKTLWQQDYAFSAPNAA (acid eluted) [MA-32]: binds.
IDSSKNRISGTGYLSFPHIRHANRRHMADDSNLAPGPS (acid eluted) [V1]: binds.

Target: T2, PEM peptide
Assay: phage panning on PEM peptide, DC43 library, stringent acid elution
Procedure: as §1
NVMWSSSKAGIRDCSQVPPGGCGPVNRHRASPPLTPFRHGSIR (stringent acid elution) [V4]: binds.
GSKRSCWGTTISNYFRPVPEGCGSASSINPNTNTGRLPSLHRQ (stringent acid elution) [V10]: binds.
WSIGTHTGPEGKFRIPCDRSGCGGTTLTHGGLNSSPTGQHERP (stringent acid elution) [V44]: binds.
DPCEDGYWLSSVGRAGASIRGCGAIRRSSRTLTAEYSTRASNH (stringent acid elution) [V39]: binds.
SSASSGCLGRAEHLDLDSVWGCGSQADMSRRYSPWYGRPRTGV (stringent acid elution) [V7]: binds.
